Test results as given in US20260092093A1 (TJ BIOPHARMA SHANGHAI, published 2026).

T1: hIL-18 receptor (hIL-18Rα and hIL-18Rβ) (human, UniProt Q13478 19-541; O95256 20-599)
T1 sequence (looked up) 1: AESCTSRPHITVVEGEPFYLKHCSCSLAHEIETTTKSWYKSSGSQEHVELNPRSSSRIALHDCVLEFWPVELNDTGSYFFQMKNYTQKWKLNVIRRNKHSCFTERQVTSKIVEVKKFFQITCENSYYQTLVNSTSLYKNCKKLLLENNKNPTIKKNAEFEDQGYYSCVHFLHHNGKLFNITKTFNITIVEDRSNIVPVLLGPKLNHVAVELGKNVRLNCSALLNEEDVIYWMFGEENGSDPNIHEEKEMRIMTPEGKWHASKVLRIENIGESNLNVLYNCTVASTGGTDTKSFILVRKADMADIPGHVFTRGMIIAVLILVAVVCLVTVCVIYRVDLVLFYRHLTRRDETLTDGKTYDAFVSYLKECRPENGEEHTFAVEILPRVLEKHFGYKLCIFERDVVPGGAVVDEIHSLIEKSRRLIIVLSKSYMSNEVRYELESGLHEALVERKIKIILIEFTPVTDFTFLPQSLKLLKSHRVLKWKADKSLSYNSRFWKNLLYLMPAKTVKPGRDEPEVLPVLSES
T1 sequence (looked up) 2: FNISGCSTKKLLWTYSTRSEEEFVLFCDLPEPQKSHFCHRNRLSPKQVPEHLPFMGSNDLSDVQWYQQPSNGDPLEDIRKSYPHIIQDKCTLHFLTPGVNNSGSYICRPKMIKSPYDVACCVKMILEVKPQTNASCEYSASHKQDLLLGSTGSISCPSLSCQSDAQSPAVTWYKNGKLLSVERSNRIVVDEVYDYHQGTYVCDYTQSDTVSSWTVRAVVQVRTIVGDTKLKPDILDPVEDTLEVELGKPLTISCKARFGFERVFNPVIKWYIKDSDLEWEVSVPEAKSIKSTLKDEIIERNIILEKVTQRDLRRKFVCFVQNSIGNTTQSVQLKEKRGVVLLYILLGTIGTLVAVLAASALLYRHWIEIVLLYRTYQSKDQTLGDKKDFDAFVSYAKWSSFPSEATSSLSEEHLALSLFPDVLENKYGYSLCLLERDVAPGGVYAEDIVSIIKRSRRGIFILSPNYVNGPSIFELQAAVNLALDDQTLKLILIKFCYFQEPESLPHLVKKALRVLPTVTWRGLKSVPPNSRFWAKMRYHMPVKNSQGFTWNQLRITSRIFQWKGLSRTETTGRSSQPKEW

T2: hIL-18BP-hFc (human, UniProt O95998 31-194, limits assumed)
T2 sequence (looked up): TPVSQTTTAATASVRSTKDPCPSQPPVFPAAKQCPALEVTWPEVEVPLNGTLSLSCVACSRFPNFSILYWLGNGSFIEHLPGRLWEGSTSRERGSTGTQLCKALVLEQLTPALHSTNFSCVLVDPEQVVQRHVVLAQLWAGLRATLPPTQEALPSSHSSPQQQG

T3: hIL-18Rα ECD-Fc fusion protein (human, UniProt Q13478 22-329)
T3 construct: extracellular domain; captured on Protein A sensor
T3 sequence (looked up): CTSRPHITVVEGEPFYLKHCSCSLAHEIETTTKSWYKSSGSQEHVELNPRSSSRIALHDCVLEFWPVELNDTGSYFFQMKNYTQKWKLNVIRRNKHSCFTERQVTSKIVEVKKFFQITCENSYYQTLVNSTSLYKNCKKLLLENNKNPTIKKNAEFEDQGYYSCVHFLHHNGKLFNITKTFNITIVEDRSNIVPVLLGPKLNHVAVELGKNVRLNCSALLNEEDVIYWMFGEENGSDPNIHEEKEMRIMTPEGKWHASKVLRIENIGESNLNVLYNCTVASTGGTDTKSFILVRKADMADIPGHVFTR

T4: recombinant hIL-18Rα extracellular domain (human, UniProt Q13478 22-329, biotin label (selection) or fluorescent probe (single-clone FACS), sites not given)
T4 construct: extracellular domain; also called hIL-18Rα ECD; hIL-18Rα-ECD
T4 sequence (looked up): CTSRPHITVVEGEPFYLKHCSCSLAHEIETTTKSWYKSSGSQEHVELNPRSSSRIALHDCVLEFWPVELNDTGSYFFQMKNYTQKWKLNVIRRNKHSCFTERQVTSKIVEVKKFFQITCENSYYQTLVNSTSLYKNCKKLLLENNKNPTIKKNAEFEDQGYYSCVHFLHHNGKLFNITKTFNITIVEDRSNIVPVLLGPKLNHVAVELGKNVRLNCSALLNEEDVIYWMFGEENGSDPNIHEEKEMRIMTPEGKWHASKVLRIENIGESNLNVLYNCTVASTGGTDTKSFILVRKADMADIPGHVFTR


Tests used:
[1] = target: T1, hIL-18 receptor (hIL-18Rα and hIL-18Rβ); assay: cell-based or functional assay
[2] = target: T2, hIL-18BP-hFc; assay: cell-based or functional assay
[3] = target: T3, hIL-18Rα ECD-Fc fusion protein; assay: BLI (Octet RED96), hIL-18Rα ECD-Fc on Protein A sensor
Protocol: The affinities of IL-18 variant polypeptides for hIL-18Rα were assessed by Biolayer Interferometry (BLI) on Octet RED96 using Protein A sensor coated with hIL-18Rα ECD-Fc fusion protein, and WT hIL-18 was used as a control.

[4] = target: T4, recombinant hIL-18Rα extracellular …; assay: single-clone FACS, yeast display, 10 nM labelled hIL-18Rα ECD
Summary of the method: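 Yeast clones displaying IL-18 variants (screening rounds 4 and 5), at equal density, incubated with 10 nM fluorescently labelled hIL-18Rα ECD, then washed. Fraction of fluorescence-positive binding cells per clone measured by flow cytometry.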

Binder | EC50 (nM), hIL-18 reporter assay [1] [nM] | EC50 (nM) in the Presence of 1 µg/mL hIL-18BP-hFc, hIL-18 reporter assay [2] [nM] | EC50 Fold Change (+BP/-BP), hIL-18 reporter assay [2] [fold] | Kd [3] [nM] | Response (nm) [3] [nm] | koff [3] [s⁻¹] | kon [3] [M⁻¹ s⁻¹] | % of fluorescence positive cells [4] [%]
IL-18 variant polypeptide M27 (ligand) YFPKLRSKLSVIRNLNDQVLFIDQGNRPLFEDMTDSDCRDNAPRTIFIISMYKHSYTRGMAVTISVKCEKISTLSCENKIISFKEMNPPDVIKDTKSDIIFFQYSVPGHDNKMQFESSSYEGYFLACEKERDLFKLILKKEDELGDRSIMFTVQNED | 0.18 | 0.26 | 1.44 | – | – | – | – | –
IL-18 variant polypeptide M38 (ligand) YFPKLSSKLSVIRNLNDQVLFIDQGNRPLFEDMTDSDCRDNAPRTIFIISMYKWSGARGMAVTISVKCEKISTLSCENKIISFKEMNPPDVIKDTKSDIIFFQISVPGHDNKMQFESSSYEGYFLACEKERDLFKLILKKEDELGDRSIMFTVQNED | 0.57 | 1.2 | 2.11 | – | – | – | – | –
IL-18 variant polypeptide M30 (ligand) YFPKLLSKLSVIRNLNDQVLFIDQGNRPLFEDMTDSDCRDNAPRTIFIISMYKHSTVRGMAVTISVKCEKISTLSCENKIISFKEMNPPDSIKDTKSDIIFFQRSVPGHDNKMQFESSSYEGYFLACEKERDLFKLILKKEDELGDRSIMFTVQNED | 2.5 | 1.7 | 0.68 | – | – | – | – | –
IL-18 variant polypeptide M34 (ligand) YFPKLRSKLSVIRNLNDQVLFIDQGNRPLFEDMTDSDCRDNAPRTIFIISMYKHSRNRGMAVTISVKCEKISTLSCENKIISFKEMNPPDVIKDTKSDIIFFQESVPGHDNKMQFESSSYEGYFLACEKERDLFKLILKKEDELGDRSIMFTVQNED | 0.71 | 0.9 | 1.27 | – | – | – | – | –
IL-18 variant polypeptide M31 (ligand) YFPKLRSKLSVIRNLNDQVLFIDQGNRPLFEDMTDSDCRDNAPRTIFIISMYKHSIHRGMAVTISVKCEKISTLSCENKIISFKEMNPPDIIKDTKSDIIFFQYSVPGHDNKMQFESSSYEGYFLACEKERDLFKLILKKEDELGDRSIMFTVQNED | 0.25 | 0.18 | 0.72 | – | – | – | – | –
IL-18 variant polypeptide M37 (ligand) YFPKLGSKLSVIRNLNDQVLFIDQGNRPLFEDMTDSDCRDNAPRTIFIISMYKQSVWRGMAVTISVKCEKISTLSCENKIISFKEMNPPDNIKDTKSDIIFFQRSVPGHDNKMQFESSSYEGYFLACEKERDLFKLILKKEDELGDRSIMFTVQNED | 0.14 | 0.33 | 2.36 | – | – | – | – | –
IL-18 variant polypeptide LM4 (ligand) YFPKLKSKLSVIRNLNDQVLFIDQGNRPLFEDMTDSDCRDNAPRTIFIISMYKHSYSRGMAVTISVKCEKISTLSCENKIISFKEMNPPDNIKDTKSDIIFFQRSVPGHDNKMQFESSSYEGYFLACEKERDLFKLILKKEDELGDRSIMFTVQNED | 0.16 | 0.17 | 1.06 | – | – | – | – | –
IL-18 variant polypeptide M28 (ligand) YFPKLASKLSVIRNLNDQVLFIDQGNRPLFEDMTDSDCRDNAPRTIFIISMYKWSGGRGMAVTISVKCEKISTLSCENKIISFKEMNPPDVIKDTKSDIIFFQYSVPGHDNKMQFESSSYEGYFLACEKERDLFKLILKKEDELGDRSIMFTVQNED | 0.018 | 0.042 | 2.33 | – | – | – | – | –
IL-18 variant polypeptide M40 (ligand) YFDKLKSKLSVIRNLNDQVLFIDQGNRPLFEDMTDSDCRDNAPRTIFIISMYKPSSWRGMAVTISVKCEKISTLSCENKIISFKEMNPPDWIKDTKSDIIFFQRSVPGHDNKMQFESSSYEGYFLACEKERDLFKLILKKEDELGDRSIMFTVQNED [IL-18 variant polypeptide M40, listing 1 of 2 here] | 0.12 | 0.16 | 1.33 | – | – | – | – | –
IL-18 variant polypeptide LM3 (ligand) YFPKLRSKLSIIRNLNDQVLFIDQGNRPLFEDMTDSDCRDNAPRTIFIISMYKGSGARGMAVTISVKCEKISTLSCENKIISFKEMNPPDGIKDTKSDIIFFQRSVPGHDNKMQFESSSYEGYFLACEKERDLFKLILKKEDELGDRSIMFTVQNED | 0.052 | 0.069 | 1.33 | – | – | – | – | –
IL-18 variant polypeptide M39 (ligand) YFPKLRSKLSVIRNLNDQVLFIDQGNRPLFEDMTDSDCRDNAPRTIFIISMYKWSPGRGMAVTISVKCEKISTLSCENKIISFKEMNPPDVIKDTKSDIIFFQLSVPGHDNKMQFESSSYEGYFLACEKERDLFKLILKKEDELGDRSIMFTVQNED | 0.3 | 0.44 | 1.47 | – | – | – | – | –
IL-18 variant polypeptide LM2 (ligand) YFPKLRSKLSVIRNLNDQVLFIDQGNRPLFEDMTDSDCRDNAPRTIFIISMYKLSGSRGMAVTISVKCEKISTLSCENKIISFKEMNPPDVIKDTKSDIIFFQRSVPGHDNKMQFESSSYEGYFLACEKERDLFKLILKKEDELGDRSIMFTVQNED | 0.11 | 0.055 | 0.5 | – | – | – | – | –
IL-18 variant polypeptide LM1 (ligand) YFPKLKSKLSVIRNLNDQVLFIDQGNRPLFEDMTDSDCRDNAPRTIFIISMYKGSGARGMAVTISVKCEKISTLSCENKIISFKEMNPPDNIKDTKSDIIFFQRSVPGHDNKMQFESSSYEGYFLACEKERDLFKLILKKEDELGDRSIMFTVQNED | 0.076 | 0.11 | 1.45 | – | – | – | – | –
IL-18 variant polypeptide M40 (ligand) YFDKLKSKLSVIRNLNDQVLFIDQGNRPLFEDMTDSDCRDNAPRTIFIISMYKPSSWRGMAVTISVKCEKISTLSCENKIISFKEMNPPDWIKDTKSDIIFFQRSVPGHDNKMQFESSSYEGYFLACEKERDLFKLILKKEDELGDRSIMFTVQNED [IL-18 variant polypeptide M40, listing 2 of 2 here] | – | – | – | 32.6 | 0.161 | 0.0121 | 371000 | 39.6
